Experimental findings from PMC8100869 (Biochemistry, 2020) are described below.

The data set deals with the molecule itself. Description: crystal structure.

B1: Catabolite Activator Protein (CAP) (natural protein)
chain: VLGKPQTDPTLEWFLSHCHIHKYPSKSTLIHQGEKAETLYYIVKGSVAVLIKDEEGKEMILSYLNQGDFIGELGLFEEGQERSAWVRAKTACEVAEISYKKFRQLIQVNPDILMRLSAQMARRLQVTSEKVGNLAFLDVTGRIAQTLLNLAKQPDAMTHPDGMQIKITRQEIGQIVGCSRETVGRILKMLEDQNLISAHGKTIVVYGTR
Consider B1, for which the binding result is recorded as “binds”.
